Results published in IntAct's records for PubMed 21423148.

B1: Calcium-binding protein 39 (Homo sapiens), Q9Y376 (parent)
chain: MPFPFGKSHKSPADIVKNLKESMAVLEKQDISDKKAEKATEEVSKNLVAMKEILYGTNEKEPQTEAVAQLAQELYNSGLLSTLVADLQLIDFEGKKDVAQIFNNILRRQIGTRTPTVEYICTQQNILFMLLKGYESPEIALNCGIMLRECIRHEPLAKIILWSEQFYDFFRYVEMSTFDIASDAFATFKDLLTRHKLLSAEFLEQHYDRFFSEYEKLLHSENYVTKRQSLKLLGELLLDRHNFTIMTKYISKPENLKLMMNLLRDKSRNIQFEAFHVFKVFVANPNKTQPILDILLKNQAKLIEFLSKFQNDRTEDEQFNDEKTYLVKQIRDLKRPAQQEA
B2: Calcium-binding protein 39 (Homo sapiens), Q9Y376 (parent)
chain: B1 chain
partner: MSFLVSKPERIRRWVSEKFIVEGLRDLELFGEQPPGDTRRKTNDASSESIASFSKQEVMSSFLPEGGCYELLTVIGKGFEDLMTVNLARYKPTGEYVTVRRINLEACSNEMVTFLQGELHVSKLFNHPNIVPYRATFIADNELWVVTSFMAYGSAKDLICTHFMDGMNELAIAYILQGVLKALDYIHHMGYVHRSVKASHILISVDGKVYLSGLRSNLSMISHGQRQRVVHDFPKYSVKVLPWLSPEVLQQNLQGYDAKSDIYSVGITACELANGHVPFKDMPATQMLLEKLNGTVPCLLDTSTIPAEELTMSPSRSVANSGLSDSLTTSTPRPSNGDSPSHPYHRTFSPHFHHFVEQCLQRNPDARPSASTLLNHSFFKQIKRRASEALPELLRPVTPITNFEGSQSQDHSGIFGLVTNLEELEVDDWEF

Legend:
[1] = variants of: B1; conditions: with stk39_human STK39, Q9UEW8
[2] = variants of: B1; conditions: with oxsr1_human OXSR1, O95747
[3] = variants of: B1; conditions: with stk26_human STK26, Q9P289
[4] = variants of: B1; conditions: with stk26_human STK26, Q9P289; remark: listed apart in the source
[5] = variants of: B1; conditions: with stk39_human STK39, Q9UEW8; remark: listed apart in the source
[6] = variants of: B1; conditions: with oxsr1_human OXSR1, O95747; remark: listed apart in the source
[7] = variants of: B1; conditions: with stk25_human STK25, O00506
[8] = variants of: B1; conditions: with stk26_human STK26, Q9P289; remark: listed apart in the source
[9] = variants of: B1; conditions: with stk39_human STK39, Q9UEW8; remark: listed apart in the source
[10] = variants of: B1; conditions: with oxsr1_human OXSR1, O95747; remark: listed apart in the source
[11] = variants of: B2; conditions: with straa_human STRADA

Chain of stk26_human STK26, Q9P289 (Q9P289 whole entry, looked up): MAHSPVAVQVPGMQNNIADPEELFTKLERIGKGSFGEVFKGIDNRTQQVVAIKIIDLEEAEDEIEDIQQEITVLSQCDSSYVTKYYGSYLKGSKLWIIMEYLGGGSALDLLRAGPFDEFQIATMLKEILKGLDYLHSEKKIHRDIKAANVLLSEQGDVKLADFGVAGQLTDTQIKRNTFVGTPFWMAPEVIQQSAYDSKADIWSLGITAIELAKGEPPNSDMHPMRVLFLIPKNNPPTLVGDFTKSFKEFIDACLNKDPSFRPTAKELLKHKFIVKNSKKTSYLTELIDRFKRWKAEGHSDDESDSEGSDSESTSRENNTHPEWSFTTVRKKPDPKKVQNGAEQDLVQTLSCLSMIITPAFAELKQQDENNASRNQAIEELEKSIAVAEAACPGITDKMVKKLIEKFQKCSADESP
Chain of oxsr1_human OXSR1, O95747 (O95747 whole entry, looked up): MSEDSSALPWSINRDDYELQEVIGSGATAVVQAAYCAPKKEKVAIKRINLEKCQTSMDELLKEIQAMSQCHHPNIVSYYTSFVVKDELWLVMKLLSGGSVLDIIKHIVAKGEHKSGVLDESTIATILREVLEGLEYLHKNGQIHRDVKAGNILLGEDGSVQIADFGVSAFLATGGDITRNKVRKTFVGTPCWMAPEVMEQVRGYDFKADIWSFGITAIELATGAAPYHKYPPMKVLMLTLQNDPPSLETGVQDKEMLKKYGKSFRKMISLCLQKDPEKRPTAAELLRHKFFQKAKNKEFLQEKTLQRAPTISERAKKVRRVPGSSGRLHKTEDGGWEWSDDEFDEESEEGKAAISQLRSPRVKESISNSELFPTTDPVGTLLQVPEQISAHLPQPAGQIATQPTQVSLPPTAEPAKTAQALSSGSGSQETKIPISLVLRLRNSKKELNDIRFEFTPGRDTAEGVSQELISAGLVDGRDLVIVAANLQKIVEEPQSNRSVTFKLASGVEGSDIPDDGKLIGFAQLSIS
Chain of stk25_human STK25, O00506 (O00506 whole entry, looked up): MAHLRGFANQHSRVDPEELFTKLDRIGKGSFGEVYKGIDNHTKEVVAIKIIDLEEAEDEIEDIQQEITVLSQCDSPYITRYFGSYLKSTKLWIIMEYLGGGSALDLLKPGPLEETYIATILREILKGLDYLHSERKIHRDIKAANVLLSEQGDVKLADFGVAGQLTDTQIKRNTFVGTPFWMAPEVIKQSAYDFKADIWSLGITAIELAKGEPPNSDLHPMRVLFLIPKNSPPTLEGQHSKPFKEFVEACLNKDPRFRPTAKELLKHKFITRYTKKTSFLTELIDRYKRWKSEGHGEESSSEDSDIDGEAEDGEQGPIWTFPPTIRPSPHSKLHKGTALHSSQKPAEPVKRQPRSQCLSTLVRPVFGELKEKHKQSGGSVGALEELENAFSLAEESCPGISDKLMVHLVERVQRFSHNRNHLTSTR

Row | Variant | effect of a mutation on the interaction [1] | effect of a mutation on the interaction [2] | effect of a mutation on the interaction [3] | effect of a mutation on the interaction [4] | effect of a mutation on the interaction [5] | effect of a mutation on the interaction [6] | effect of a mutation on the interaction [7] | effect of a mutation on the interaction [8] | effect of a mutation on the interaction [9] | effect of a mutation on the interaction [10] | effect of a mutation on the interaction [11]
1 | MPFPFGKSHKSPADIVKNLKESMAVLEKQDISDKKAEKATEEVSKNLVAMKEILYGTNEKEPQTEAVAQLAQELYNSGLLSTLVADLQLIDFEGKKDVAQIFNNILRRQIGTRTPTVEYICTQQNILFMLLKGYESPEIALNCGIMLRECIRHEPLAKIILWSEQFYDFFRYVEMSTFDIASDAFATFKDLLTRHKLLSAEFLEQHYDRFFSEYEKLLHSENYVTKAQSLKLLGELLLDRHNFTIMTKYISKPENLKLMMNLLRDKSRNIQFEAFHVFKVFVANPNKTQPILDILLKNQAKLIEFLSKFQNDRTEDEQFNDEKTYLVKQIRDLKRPAQQEA [R227A] | disrupting interaction | disrupting interaction | disrupting interaction | decreasing interaction | decreasing interaction | decreasing interaction | disrupting interaction | – | – | – | –
2 | MPFPFGKSHKSPADIVKNLKESMAVLEKQDISDKKAEKATEEVSKNLVAMKEILYGTNEKEPQTEAVAQLAQELYNSGLLSTLVADLQLIDFEGKKDVAQIFNNILRRQIGTRTPTVEYICTQQNILFMLLKGYESPEIALNCGIMLRECIRHEPLAKIILWSEQFYDFFRYVEMSTFDIASDAFATFKDLLTRHKLLSAEFLEQHYDRFFSEYEKLLHSENYVTKRQSLKLLGELLLDRHNFTIMTKYISKPENLKLMANLLRDKSRNIQFEAFHVFKVFVANPNKTQPILDILLKNQAKLIEFLSKFQNDRTEDEQFNDEKTYLVKQIRDLKRPAQQEA [M260A] | disrupting interaction | disrupting interaction | disrupting interaction | – | – | – | disrupting interaction | decreasing interaction | decreasing interaction | decreasing interaction | –
3 | MPFPFGKSHKSPADIVKNLKESMAVLEKQDISDKKAEKATEEVSKNLVAMKEILYGTNEKEPQTEAVAQLAQELYNSGLLSTLVADLQLIDFEGKKDVAQIFNNILRRQIGTRTPTVEYICTQQNILFMLLKGYESPEIALNCGIMLRECIRHEPLAKIILWSEQFYDFFRYVEMSTFDIASDAFATFKDLLTRHKLLSAEFLEQHYDRFFSEYEKLLHSENYVTKRQSLKLLGELLLDRHNFTIMTKYISKPENLKLMANLLRDKSRNIQFEAFHVFKVFVANPNKTQPILDILLKNQAKLIEFLSKFQNDRTEDEQFNDEKTYLVKQIRDLKRPAQQEA [M260A] | – | – | – | – | – | – | – | – | – | – | disrupting interaction
4 | MPFPFGKSHKSPADIVKNLKESMAVLEKQDISDKKAEKATEEVSKNLVAMKEILYGTNEKEPQTEAVAQLAQELYNSGLLSTLVADLQLIDFEGKKDVAQIFNNILRRQIGTRTPTVEYICTQQNILFMLLKGYESPEIALNCGIMLRECIRHEPLAKIILWSEQFYDFFRYVEMSTFDIASDAFATFKDLLTRHKLLSAEFLEQHYDRFFSEYEKLLHSENYVTKAQSLKLLGELLLDRHNFTIMTKYISKPENLKLMMNLLRDKSRNIQFEAFHVFKVFVANPNKTQPILDILLKNQAKLIEFLSKFQNDRTEDEQFNDEKTYLVKQIRDLKRPAQQEA [R227A] | – | – | – | – | – | – | – | – | – | – | disrupting interaction
